The text below walks through data of doi:10.1101/2023.09.18.557803, “Structure of the portal complex from Staphylococcus aureus pathogenicity island 1 transducing particles in situ and in solution” (bioRxiv, 2023).

Series [1] deals with bacteriophage 80α portal protein (gp42), expressed in E. coli with a C-terminal hexahistidine tag (Staphylococcus aureus bacteriophage 80α). The experiment in a line: cryo-EM structure; portals expressed in E. coli, in solution (25 mM HEPES pH 7.4, 0.1 M NaCl); 2D classification and C13 reconstruction in RELION-3, 2.4 Å.
For series [2], the target named is bacteriophage 80α portal protein (gp42) in situ in SaPI1 virions (Staphylococcus aureus bacteriophage 80α). The experiment in a line: cryo-EM structure; focused reconstruction with C12 symmetry of the portal complex in situ in purified full and empty SaPI1 virions (assembled in S. aureus), after signal subtraction of the capsid; 3.2 Å (full) and 3.5 Å (empty).
Series [3] concerns the molecule itself. The experiment in a line: cryo-EM structure; icosahedral reconstruction of full and empty capsids of purified SaPI1 virions (assembled in S. aureus); 3.1 Å (full, used to model CP) and 3.2 Å (empty).

As to “bacteriophage 80α portal protein (gp42), expressed in E. coli with a C-terminal hexahistidine tag (natural protein)”, the stoichiometry N in series [1] is 13.

Regarding “bacteriophage 80α portal protein (gp42) in situ in SaPI1 virions (natural protein)”, in series [2], the stoichiometry N came out at 12.

B1: bacteriophage 80α capsid protein (gp47) in mature SaPI1 capsids (natural protein, Staphylococcus aureus bacteriophage 80α, UniProt A4ZFB3 15-324, looked up)
chain: ASNNVKPQVFNPDNVMMHEKKDGTLMNEFTTPILQEVMENSKIMQLGKYEPMEGTEKKFTFWADKPGAYWVGEGQKIETSKATWVNATMRAFKLGVILPVTKEFLNYTYSQFFEEMKPMIAEAFYKKFDEAGILNQGNNPFGKSIAQSIEKTNKVIKGDFTQDNIIDLEALLEDDELEANAFISKTQNRSLLRKIVDPETKERIYDRNSDSLDGLPVVNLKSSNLKRGELITGDFDKLIYGIPQLIEYKIDETAQLSTVKNEDGTPVNLFEQDMVALRATMHVALHIADDKAFAKLVPADKRTDSVPGEV
notes: capsid protein gp47 of Staphylococcus aureus bacteriophage 80α, cut product: the first 14 residues are removed by the Prp protease; domains printed as N-arm 15-67, E-loop 68-104, P-domain 105-167 and 248-307, A-domain 168-247 and 308-324; residues 16-313 modelled; 240 copies in the icosahedral T=4 capsid; in the real virion five subunits at one vertex are replaced by the portal; also called CP; …
Take B1: the “stoichiometry N” value in series [3] was found to be 240.
